# Measurements from patent US12077763B2, “RNA-based control of powdery mildew” (Greenlight Biosciences, Inc., priority 2021, dated 2024).
# B1: GS3525 (nucleic acid)
# sense: CUGGAAUUGUUGCACUGGCCAUGUAAAGCAGUUUAUGACUCGUCUAAAUAUUUAAUUACGGCUAUGCACGGAGAGCUUGGGGUUACUGUUUUUUUUUCUCAAAAAUAUGCCGGUGGGAUUCGAAUUGGUCCGGAUAUUUUUUCUGUAAAUAAUUGAGUGACGGCUUUGUACUCGUGAUAAUUACAGACAAAUCUAAUAUAAUGUGCUUAUCCUUCUAACGAACUUCGGAGAAUGAUUUGUUUUAUUGAGUGAUUAGUUGACUUGUUUUAUUAGUUAUGGUUAUCAAACGAUCACAUAAAAAAACGCAUACUUUUUACAAUGAAGUGAUUGUAUACCAAUGUUUCCCUUGGUGGCCCUCAAAAAACUAAGUUAGAUAGAU
# antisense: AUCUAUCUAACUUAGUUUUUUGAGGGCCACCAAGGGAAACAUUGGUAUACAAUCACUUCAUUGUAAAAAGUAUGCGUUUUUUUAUGUGAUCGUUUGAUAACCAUAACUAAUAAAACAAGUCAACUAAUCACUCAAUAAAACAAAUCAUUCUCCGAAGUUCGUUAGAAGGAUAAGCACAUUAUAUUAGAUUUGUCUGUAAUUAUCACGAGUACAAAGCCGUCACUCAAUUAUUUACAGAAAAAAUAUCCGGACCAAUUCGAAUCCCACCGGCAUAUUUUUGAGAAAAAAAAACAGUAACCCCAAGCUCUCCGUGCAUAGCCGUAAUUAAAUAUUUAGACGAGUCAUAAACUGCUUUACAUGGCCAGUGCAACAAUUCCAG
# B2: GS3603 (nucleic acid)
# sense: AGUCCAAAAGAGUCCAGGAGUUCGGUAUCGGAUCAUAACACCAAACAUCGUUAUACCAUUGAAGACCAUUUGUUCCGCCAAACAAGUAAAGCUUUUCAUUAUAUGUCACAACUGAGUGAUUUGUUCUAGCUGAUGGUAUUUGUCCUACUGGGGGUCCACCAUCCUCACUAUUUUUAAUGAGAAUUUCCCACCUGUUCGUAGGGACUUGCAAAAGAUUCAAAUCAAAAGCCACAAGGUCAUUCAUAAAAUAACCCUCUACUUGCCCCCCGAAUACGUAGAUUUUAGACCCUAGUAUAUUGA
# antisense: UCAAUAUACUAGGGUCUAAAAUCUACGUAUUCGGGGGGCAAGUAGAGGGUUAUUUUAUGAAUGACCUUGUGGCUUUUGAUUUGAAUCUUUUGCAAGUCCCUACGAACAGGUGGGAAAUUCUCAUUAAAAAUAGUGAGGAUGGUGGACCCCCAGUAGGACAAAUACCAUCAGCUAGAACAAAUCACUCAGUUGUGACAUAUAAUGAAAAGCUUUACUUGUUUGGCGGAACAAAUGGUCUUCAAUGGUAUAACGAUGUUUGGUGUUAUGAUCCGAUACCGAACUCCUGGACUCUUUUGGACU
# B3: GS3523 (nucleic acid)
# sense: UAACGAGAGAGAAUACACGGUAAAGACAGUAGUAUGGCAUAUGAUGCAAAAUGUAGAAAAGAUUGUAAUUGAGUUGGCAGUAAGUUCAUUCACGAAAAAUGAAUUAUUUUCCACACCAUAUCCGGGCUGAGGAAGGAAGACAUUUGUUUUCAAGUCAAGUUAAUGAAAAAACCAAAAAUAAAACUCAAACACACAGUGAGUAAUUUUUAUUAAGGUGGUCCAAUAAUAAUUUUUUCUGACAUGUACUCCUUGUAGUUUUGAGAUGAAAAUAGAGAUAAUAUUGAGUCUGUCGUUAUCCGAAACAGUUUAUGUUAGAGGUUGAUAAAUGACGAUACAAAAUGUAUAUAUUAGGAAAUCAAUUUACCGUGACCAAUGAGAAAAGAGGAGGUCUAAUU
# antisense: AAUUAGACCUCCUCUUUUCUCAUUGGUCACGGUAAAUUGAUUUCCUAAUAUAUACAUUUUGUAUCGUCAUUUAUCAACCUCUAACAUAAACUGUUUCGGAUAACGACAGACUCAAUAUUAUCUCUAUUUUCAUCUCAAAACUACAAGGAGUACAUGUCAGAAAAAAUUAUUAUUGGACCACCUUAAUAAAAAUUACUCACUGUGUGUUUGAGUUUUAUUUUUGGUUUUUUCAUUAACUUGACUUGAAAACAAAUGUCUUCCUUCCUCAGCCCGGAUAUGGUGUGGAAAAUAAUUCAUUUUUCGUGAAUGAACUUACUGCCAACUCAAUUACAAUCUUUUCUACAUUUUGCAUCAUAUGCCAUACUACUGUCUUUACCGUGUAUUCUCUCUCGUUA
# B4: GS3606 (nucleic acid)
# sense: UAAGGUUGUGUCGGACAACACGAUUCAUACGAGCACUCCCGUCAUCUAAAUCAUCAUCUGCGAGUACAAUUAAAACAGUAUCCUUUCGCUUCUUCCCCUUAACUAGGACAGUAUCUCCACGAAAAAGCUGCAAAGUUUCCAUGGUAUUAUUUGACAGUGCAAUAACAGAGUUAUCAUCGUUGAUGGCAUCUGUUACAAUUAAGGAAUUUGGCUUUUUCUUCUUUUUUAAAAUAGCAGUCGCAGUAGCAUCAAUCGUCUUUUGUUCAGCGCCAGAGGCAUCCUCAAGUUUAACUGUUUUUU
# antisense: AAAAAACAGUUAAACUUGAGGAUGCCUCUGGCGCUGAACAAAAGACGAUUGAUGCUACUGCGACUGCUAUUUUAAAAAAGAAGAAAAAGCCAAAUUCCUUAAUUGUAACAGAUGCCAUCAACGAUGAUAACUCUGUUAUUGCACUGUCAAAUAAUACCAUGGAAACUUUGCAGCUUUUUCGUGGAGAUACUGUCCUAGUUAAGGGGAAGAAGCGAAAGGAUACUGUUUUAAUUGUACUCGCAGAUGAUGAUUUAGAUGACGGGAGUGCUCGUAUGAAUCGUGUUGUCCGACACAACCUUA
# B5: GS3601 (nucleic acid)
# sense: CAAUUGCUGCAGCAUGACCUUCUCUUGGAACCGGUAUAUAUCCUAUGCAGUCCAAAAGAGUCCAGGAGUUCGGUAUCGGAUCAUAACACCAAACAUCGUUAUACCAUUGAAGACCAUUUGUUCCGCCAAACAAGUAAAGCUUUUCAUUAUAUGUCACAACUGAGUGAUUUGUUCUAGCUGAUGGUAUUUGUCCUACUGGGGGUCCACCAUCCUCACUAUUUUUAAUGAGAAUUUCCCACCUGUUCGUAGGGACUUGCAAAAGAUUCAAAUCAAAAGCCACAAGGUCAUUCAUAAAAUAACCCUCUACUUGCCCCCCGAAUACGUAGAUUUUAGACCCUAGUAUAUUGAGAGAAUGACCAUAACGCCCCGCGGGCCGUGGCCCGGCAGGUAUAGCUCUGGA
# antisense: UCCAGAGCUAUACCUGCCGGGCCACGGCCCGCGGGGCGUUAUGGUCAUUCUCUCAAUAUACUAGGGUCUAAAAUCUACGUAUUCGGGGGGCAAGUAGAGGGUUAUUUUAUGAAUGACCUUGUGGCUUUUGAUUUGAAUCUUUUGCAAGUCCCUACGAACAGGUGGGAAAUUCUCAUUAAAAAUAGUGAGGAUGGUGGACCCCCAGUAGGACAAAUACCAUCAGCUAGAACAAAUCACUCAGUUGUGACAUAUAAUGAAAAGCUUUACUUGUUUGGCGGAACAAAUGGUCUUCAAUGGUAUAACGAUGUUUGGUGUUAUGAUCCGAUACCGAACUCCUGGACUCUUUUGGACUGCAUAGGAUAUAUACCGGUUCCAAGAGAAGGUCAUGCUGCAGCAAUUG
# B6: GS3526 (nucleic acid)
# sense: UAUCCCUGAUUUCUAUAGUCUGAUGAAGAAUGAUUUUUGUAGGCAAUAGACUUUCUUCUCUUCCCAGAACAGCAGCUUCUACAGCAUCCACAACAGCUUAGGAAAGAGAAGCAAGAACAACAAAAUGAGUAUCCAAAGCACAAGCAGCGUGUCAUACAAAUGAUAAUUGAGAGGACUAUUAAGCCACCGAUAACAAGUCCGAUUAUUGCUGGCCAUUUGCAAUAAAUUUGUAUCAUGCAUUUAUCCCAGUUGGUGAAUGAAGAAGUAACGUUUGAUACUUGAUUAGUUAAUUGAUCACUCAACUGAUCACUUACAAGCCUUGGCCUAAGCAAACUAAUCUCCAAAAAAUUCAUGUUUCCAAUAUUAACACCUCCGUGAUCUUCAUUAAAUAAGUAA
# antisense: UUACUUAUUUAAUGAAGAUCACGGAGGUGUUAAUAUUGGAAACAUGAAUUUUUUGGAGAUUAGUUUGCUUAGGCCAAGGCUUGUAAGUGAUCAGUUGAGUGAUCAAUUAACUAAUCAAGUAUCAAACGUUACUUCUUCAUUCACCAACUGGGAUAAAUGCAUGAUACAAAUUUAUUGCAAAUGGCCAGCAAUAAUCGGACUUGUUAUCGGUGGCUUAAUAGUCCUCUCAAUUAUCAUUUGUAUGACACGCUGCUUGUGCUUUGGAUACUCAUUUUGUUGUUCUUGCUUCUCUUUCCUAAGCUGUUGUGGAUGCUGUAGAAGCUGCUGUUCUGGGAAGAGAAGAAAGUCUAUUGCCUACAAAAAUCAUUCUUCAUCAGACUAUAGAAAUCAGGGAUA
# B7: GS3524 (nucleic acid)
# sense: UCAAGUCCACUUCGAUUUGUAAAGCAAGAAGUUAUGAGACCUUGAGAAUGACUGAGGUAGGCCGAAUAAGAUUUUCAGAUUCUAAAAUACUGGAUUUUGGUACCAAUUCAUGAUCCUUUCUGGCCCCCUUACAUUGGCGACAAGGCAGAUAGUCAUCGAGUUGGUCUUUUCCAGUCAAAGAAUGAUAAUCUCCAACGUCUUUCCGGGAAACAGAAGUUGUAUUGACAUUAAUUACAGCUGUGGAUGAGGAUGAACGAUAAUAUUGGCGUUGAGCUACAGGGAAGGGAUUCAACAGAUGCCAUUGCCAUUCAUAAUUUCCAUGAAGCCAAGUCGUUGAAGCCAGAGAUGCAAGUGUAUGGAAGAAUCCCAAGAGCCAAUUGAUUGAAGACAGAAUUACU
# antisense: AGUAAUUCUGUCUUCAAUCAAUUGGCUCUUGGGAUUCUUCCAUACACUUGCAUCUCUGGCUUCAACGACUUGGCUUCAUGGAAAUUAUGAAUGGCAAUGGCAUCUGUUGAAUCCCUUCCCUGUAGCUCAACGCCAAUAUUAUCGUUCAUCCUCAUCCACAGCUGUAAUUAAUGUCAAUACAACUUCUGUUUCCCGGAAAGACGUUGGAGAUUAUCAUUCUUUGACUGGAAAAGACCAACUCGAUGACUAUCUGCCUUGUCGCCAAUGUAAGGGGGCCAGAAAGGAUCAUGAAUUGGUACCAAAAUCCAGUAUUUUAGAAUCUGAAAAUCUUAUUCGGCCUACCUCAGUCAUUCUCAAGGUCUCAUAACUUCUUGCUUUACAAAUCGAAGUGGACUUGA
# B8: GS3602 (nucleic acid)
# sense: CUUGGAACCGGUAUAUAUCCUAUGCAGUCCAAAAGAGUCCAGGAGUUCGGUAUCGGAUCAUAACACCAAACAUCGUUAUACCAUUGAAGACCAUUUGUUCCGCCAAACAAGUAAAGCUUUUCAUUAUAUGUCACAACUGAGUGAUUUGUUCUAGCUGAUGGUAUUUGUCCUACUGGGGGUCCACCAUCCUCACUAUUUUUAAUGAGAAUUUCCCACCUGUUCGUAGGGACUUGCAAAAGAUUCAAAUCAAAAGCCACAAGGUCAUUCAUAAAAUAACCCUCUACUUGCCCCCCGAAUACGUAGAUUUUAGACCCUAGUAUAUUGAGAGAAUGACCAUAACGCCCCGCGGG
# antisense: CCCGCGGGGCGUUAUGGUCAUUCUCUCAAUAUACUAGGGUCUAAAAUCUACGUAUUCGGGGGGCAAGUAGAGGGUUAUUUUAUGAAUGACCUUGUGGCUUUUGAUUUGAAUCUUUUGCAAGUCCCUACGAACAGGUGGGAAAUUCUCAUUAAAAAUAGUGAGGAUGGUGGACCCCCAGUAGGACAAAUACCAUCAGCUAGAACAAAUCACUCAGUUGUGACAUAUAAUGAAAAGCUUUACUUGUUUGGCGGAACAAAUGGUCUUCAAUGGUAUAACGAUGUUUGGUGUUAUGAUCCGAUACCGAACUCCUGGACUCUUUUGGACUGCAUAGGAUAUAUACCGGUUCCAAG
# System: E. necator
# Assay: Leaf disc assay, dry inoculum (settling tower), decrease in disease severity / hyphal growth (Example 2)
# Conditions: decrease in disease severity (hyphal growth) relative to untreated control, value ± SE; for % decrease =/− SE TP1: time point 1 (untreated control hyphal growth ≥50%); for % decrease =/− SE TP2: time point 2
Molecule,% decrease =/− SE TP1 [%],% decrease =/− SE TP2 [%]
B1,17 ± 9,34 ± 8
B2,–,7 ± 5
B3,8 ± 11,12 ± 10
B4,3 ± 6,9 ± 7
B5,–,2 ± 3
B6,22 ± 10,11 ± 10
B7,3 ± 11,22 ± 12
B8,5 ± 6,7 ± 8
